Test results as given in PMC6058786.

Molecular target: Pin1 WW-domain (UniProt Q13526)
Assay: isothermal titration calorimetry
Conditions: reference: unphosphorylated TFCD peptide; sites S258,S253

KD: stronger; reference 1.53 mM
Substance: Tissue Factor (TF) cytoplasmic domain (TFCD) (from UniProt P13726) double phosphorylated TFCD peptide
